According to patent US20030077693A1:

Assays:
[1] = molecular target: transferrin added to TRVb and TRVb-1 cells (30 µg/mL, Example 19) (UniProt P02787); assay: Pandex cell fluorescence, plate 922 (FITC Abs pre-incubated with GAM FITC), acid washed TRVb-1 cells + Tf only, stained with L235 (specificity control)
[2] = molecular target: transferrin added to TRVb and TRVb-1 cells (30 µg/mL, Example 19) (UniProt P02787); assay: Pandex cell fluorescence, plate 925 (unlabelled Abs then GAM FITC), acid washed TRVb-1 cells + Tf only, stained with L235 (specificity control)
[3] = molecular target: p97 (melanotransferrin), GPI-anchored, on the cell surface (human) (UniProt P08582); assay: cell-based or functional assay
UniProt P08582, sequence (P08582 20-709): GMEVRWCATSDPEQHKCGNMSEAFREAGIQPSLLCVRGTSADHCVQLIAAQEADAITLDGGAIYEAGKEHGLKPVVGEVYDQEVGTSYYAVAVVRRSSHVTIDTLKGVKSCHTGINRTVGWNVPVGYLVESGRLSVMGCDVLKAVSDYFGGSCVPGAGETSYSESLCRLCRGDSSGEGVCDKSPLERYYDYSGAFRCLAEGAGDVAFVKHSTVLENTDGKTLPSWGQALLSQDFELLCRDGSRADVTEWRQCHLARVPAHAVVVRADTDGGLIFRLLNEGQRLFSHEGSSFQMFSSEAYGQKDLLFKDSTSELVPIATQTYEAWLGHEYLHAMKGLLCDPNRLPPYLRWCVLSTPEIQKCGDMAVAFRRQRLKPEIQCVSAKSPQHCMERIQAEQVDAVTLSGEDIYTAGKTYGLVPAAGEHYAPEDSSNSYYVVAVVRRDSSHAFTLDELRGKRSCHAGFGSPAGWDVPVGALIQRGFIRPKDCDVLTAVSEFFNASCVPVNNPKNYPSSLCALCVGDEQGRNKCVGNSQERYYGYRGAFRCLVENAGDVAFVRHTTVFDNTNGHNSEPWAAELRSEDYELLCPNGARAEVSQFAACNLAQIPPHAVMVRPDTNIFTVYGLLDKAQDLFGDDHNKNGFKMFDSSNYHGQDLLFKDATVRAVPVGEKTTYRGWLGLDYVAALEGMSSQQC

[4] = molecular target: p97 (melanotransferrin), GPI-anchored, on the cell surface (human) (UniProt P08582); assay: FACS, p97aWTBc7 cells after PI-PLC treatment, staining against untreated stained cells
[5] = molecular target: transferrin added to TRVb and TRVb-1 cells (30 µg/mL, Example 19) (UniProt P02787); assay: Pandex cell fluorescence, plate 919, untreated TRVb-1 cells + Tf only, stained with L235 (specificity control)
[6] = molecular target: transferrin added to TRVb and TRVb-1 cells (30 µg/mL, Example 19) (UniProt P02787); assay: Pandex cell fluorescence, plate 919, acid washed TRVb-1 cells + Tf only, stained with L235 (specificity control)
[7] = molecular target: p97 (melanotransferrin), GPI-anchored, on the cell surface (human) (UniProt P08582); assay: FACS, SK-MEL-28 cells, L235 hybridoma supernatant + GAM IgG-FITC
[8] = molecular target: transferrin added to TRVb and TRVb-1 cells (30 µg/mL, Example 19) (UniProt P02787); assay: Pandex cell fluorescence, plate 925 (unlabelled Abs then GAM FITC), untreated TRVb-1 cells + Tf only, stained with L235 (specificity control)
[9] = molecular target: p97 (melanotransferrin), GPI-anchored, on the cell surface (human) (UniProt P08582); assay: FACS, SK-MEL-28 cells pre-incubated with PI-PLC (removes p97), L235 + GAM IgG-FITC
[10] = molecular target: p97 (melanotransferrin), GPI-anchored, on the cell surface (human) (UniProt P08582); assay: FACS, SK-MEL-28 cells after PI-PLC treatment, staining against untreated stained cells
[11] = molecular target: p97 (melanotransferrin), GPI-anchored, on the cell surface (human) (UniProt P08582); assay: FACS, Sf9 cells infected with p97 B-1-1, pre-incubated with PI-PLC, L235 + GAM IgG-FITC
[12] = molecular target: p97 (melanotransferrin), GPI-anchored, on the cell surface (human) (UniProt P08582); assay: FACS, Sf9 cells infected with p97 recombinant virus p97 B-2-1, L235 + GAM IgG-FITC
[13] = molecular target: p97 (melanotransferrin), GPI-anchored, on the cell surface (human) (UniProt P08582); assay: FACS, Sf9 cells infected with p97 recombinant virus p97 B-1-1, L235 + GAM IgG-FITC
[14] = molecular target: transferrin added to TRVb and TRVb-1 cells (30 µg/mL, Example 19) (UniProt P02787); assay: Pandex cell fluorescence, plate 922 (FITC Abs pre-incubated with GAM FITC), untreated TRVb-1 cells + Tf only, stained with L235 (specificity control)
[15] = molecular target: p97 (melanotransferrin), GPI-anchored, on the cell surface (human) (UniProt P08582); assay: FACS, SK-MEL-28 cells after Pronase treatment, staining against untreated stained cells
[16] = molecular target: p97 (melanotransferrin), GPI-anchored, on the cell surface (human) (UniProt P08582); assay: FACS, p97aWTBc3 cells after PI-PLC treatment, staining against untreated stained cells
[17] = molecular target: p97 (melanotransferrin), GPI-anchored, on the cell surface (human) (UniProt P08582); assay: FACS, Sf9 cells infected with p97 B-2-1, pre-incubated with PI-PLC, L235 + GAM IgG-FITC
[18] = molecular target: human transferrin receptor on cells (human) (UniProt P02786); assay: Pandex cell fluorescence, plate 919, acid washed TRVb-1 cells, OKT9 then GAM FITC
UniProt P02786, sequence (P02786 whole entry): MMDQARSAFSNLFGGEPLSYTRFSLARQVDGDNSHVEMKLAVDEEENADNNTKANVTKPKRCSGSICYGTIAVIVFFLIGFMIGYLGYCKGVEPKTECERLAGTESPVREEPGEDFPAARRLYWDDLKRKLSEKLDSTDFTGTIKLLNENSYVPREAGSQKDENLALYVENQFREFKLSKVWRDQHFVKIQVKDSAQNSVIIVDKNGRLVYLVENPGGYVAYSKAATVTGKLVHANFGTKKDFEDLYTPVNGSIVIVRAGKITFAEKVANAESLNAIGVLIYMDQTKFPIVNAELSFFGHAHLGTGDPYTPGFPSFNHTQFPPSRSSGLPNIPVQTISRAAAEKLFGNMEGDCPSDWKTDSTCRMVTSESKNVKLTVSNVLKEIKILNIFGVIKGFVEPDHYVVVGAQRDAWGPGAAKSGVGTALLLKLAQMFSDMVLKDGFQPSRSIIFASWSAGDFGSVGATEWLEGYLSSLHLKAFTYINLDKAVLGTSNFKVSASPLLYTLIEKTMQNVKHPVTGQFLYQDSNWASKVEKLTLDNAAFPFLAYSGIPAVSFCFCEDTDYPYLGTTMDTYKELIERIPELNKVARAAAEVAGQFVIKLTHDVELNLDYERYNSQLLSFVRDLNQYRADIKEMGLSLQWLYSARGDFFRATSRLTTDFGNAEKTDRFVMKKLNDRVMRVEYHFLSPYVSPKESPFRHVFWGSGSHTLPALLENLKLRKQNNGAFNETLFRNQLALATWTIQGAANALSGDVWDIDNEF

[19] = molecular target: human transferrin receptor on cells (human) (UniProt P02786); assay: Pandex cell fluorescence, plate 911, acid washed TRVb-1 cells, OKT9 then GAM FITC
[20] = molecular target: human transferrin receptor on cells (human) (UniProt P02786); assay: FACS, SK-MEL-28 cells after PI-PLC treatment, staining against untreated stained cells
[21] = molecular target: human transferrin receptor on cells (human) (UniProt P02786); assay: Pandex cell fluorescence, plate 911, untreated TRVb-1 cells, OKT9 then GAM FITC
[22] = molecular target: human transferrin receptor on cells (human) (UniProt P02786); assay: Pandex cell fluorescence, plate 919, untreated TRVb-1 cells, OKT9 then GAM FITC
[23] = molecular target: human transferrin receptor on cells (human) (UniProt P02786); assay: FACS, SK-MEL-28 cells after Pronase treatment, staining against untreated stained cells
[24] = molecular target: Thy-1 on EL-4 mouse lymphoma cells (mouse) (UniProt P01831); assay: FACS, EL-4 cells after PI-PLC treatment, staining against untreated stained cells
UniProt P01831, sequence (P01831 20-131): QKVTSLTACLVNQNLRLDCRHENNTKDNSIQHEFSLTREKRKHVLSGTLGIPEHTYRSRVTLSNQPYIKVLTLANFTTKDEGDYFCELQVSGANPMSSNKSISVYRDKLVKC

[25] = molecular target: Thy-1 on EL-4 mouse lymphoma cells (mouse) (UniProt P01831); assay: FACS, EL-4 cells after Pronase treatment, staining against untreated stained cells

UniProt P02787, sequence (P02787 20-698 limits assumed): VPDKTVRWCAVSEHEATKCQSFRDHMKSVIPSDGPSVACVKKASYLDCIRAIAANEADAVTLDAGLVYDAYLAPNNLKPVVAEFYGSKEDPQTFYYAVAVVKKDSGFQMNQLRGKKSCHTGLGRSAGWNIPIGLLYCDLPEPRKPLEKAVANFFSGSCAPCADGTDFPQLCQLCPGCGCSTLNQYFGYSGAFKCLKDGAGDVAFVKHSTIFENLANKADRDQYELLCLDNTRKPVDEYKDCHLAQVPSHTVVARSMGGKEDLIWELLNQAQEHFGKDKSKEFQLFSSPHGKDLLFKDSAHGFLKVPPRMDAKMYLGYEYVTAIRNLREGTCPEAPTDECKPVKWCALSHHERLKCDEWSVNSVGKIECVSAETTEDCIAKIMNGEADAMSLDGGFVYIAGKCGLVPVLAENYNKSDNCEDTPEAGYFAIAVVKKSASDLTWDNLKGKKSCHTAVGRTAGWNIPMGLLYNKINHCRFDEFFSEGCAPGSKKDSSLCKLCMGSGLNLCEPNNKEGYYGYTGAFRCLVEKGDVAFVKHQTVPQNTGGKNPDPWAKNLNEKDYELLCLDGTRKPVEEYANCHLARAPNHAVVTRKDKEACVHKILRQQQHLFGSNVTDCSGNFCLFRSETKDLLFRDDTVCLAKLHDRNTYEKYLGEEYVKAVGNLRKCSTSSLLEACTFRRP

Question: L235 anti-p97 mouse monoclonal antibody was tested. Which fluorescence [1] did it give?
Answer: 6220

Question: And the fluorescence less control (TRVb) [1]?
Answer: 107

Question: And the fluorescence [2]?
Answer: 2710

Question: And the fluorescence less control (TRVb) [2]?
Answer: 758

Question: What about the internalization of Fe from 59Fe-citrate by p97TRVb cells [3] of the same substance?
Answer: 31%

Question: And the Fluorescene Intensity (% of Control) [4]?
Answer: 7.5 % of Control

Question: And the fluorescence [5]?
Answer: 5330

Question: And the fluorescence less control (TRVb) [5]?
Answer: 0

Question: What about the fluorescence [6] of the same substance?
Answer: 5320

Question: What about the fluorescence less control (TRVb) [6] of the same substance?
Answer: 1120

Question: What about the FLUORESCENCE-converted linear value [7] of the same substance?
Answer: 128

Question: What about the fluorescence [8] of the same substance?
Answer: 2520

Question: What about the fluorescence less control (TRVb) [8] of the same substance?
Answer: 237

Question: What about the FLUORESCENCE-converted linear value [9] of the same substance?
Answer: 4.52

Question: What about the Fluorescene Intensity (% of Control) [10] of the same substance?
Answer: 10.8 % of Control

Question: What about the FLUORESCENCE-converted linear value [11] of the same substance?
Answer: 5.74

Question: What about the FLUORESCENCE-converted linear value [12] of the same substance?
Answer: 97.4

Question: What about the FLUORESCENCE-converted linear value [13] of the same substance?
Answer: 112

Question: What about the fluorescence [14] of the same substance?
Answer: 7440

Question: What about the fluorescence less control (TRVb) [14] of the same substance?
Answer: 0

Question: What about the Fluorescene Intensity (% of Control) [15] of the same substance?
Answer: 82.6 % of Control

Question: And the Fluorescene Intensity (% of Control) [16]?
Answer: 6.8 % of Control

Question: And the FLUORESCENCE-converted linear value [17]?
Answer: 6.85

Question: “OKT9 anti-human transferrin receptor mouse monoclonal antibody” was tested. Which fluorescence [18] did it give?
Answer: 12500

Question: What about the fluorescence less control [18] of the same substance?
Answer: 10400

Question: What about the fluorescence [19] of the same substance?
Answer: 7140

Question: What about the fluorescence less control [19] of the same substance?
Answer: 5060

Question: And the Fluorescene Intensity (% of Control) [20]?
Answer: 120 % of Control

Question: And the fluorescence [21]?
Answer: 4760

Question: And the fluorescence less control [21]?
Answer: 3250

Question: What about the fluorescence [22] of the same substance?
Answer: 13600

Question: And the fluorescence less control [22]?
Answer: 11500

Question: And the Fluorescene Intensity (% of Control) [23]?
Answer: 15.9 % of Control

Question: With T24/37.1 MAb (anti-Thy-1) (antibody) as the substance, how does the Fluorescene Intensity (% of Control) [24] read?
Answer: 32.5 % of Control

Question: And the Fluorescene Intensity (% of Control) [25]?
Answer: 136 % of Control
